# According to article PMC11480844 (2024):
# B1: H2-Kb / F4 (parent complex)
# chain 1: QQQVRQSPQSLTVWEGETAILNCSYEDSTFNYFPWYQQFPGEGPALLISIRSVSDKKEDGRFTIFFNKREKKLSLHITDSQPGDSATYFCAAMSNYNVLYFGSGTKLTVEP
# chain 2: ETAVFQTPNYHVTQVGNEVSFNCKQTLGHDTMYWYKQDSKKLLKIMFSYNNKQLIVNETVPRRFSPQSSDKAHLNLRIKSVEPEDSAVYLCASSARQNSPLYFAAGTRLTVT
# chain 3: not shown
# chain 4: IQKTPQIQVYSRHPPENGKPNILNCYVTQFHPPHIEIQMLKNGKKIPKVEMSDMSFSKDWSFYILAHTEFTPTETDTYACRVKHDSMAEPKTVYWDRDM
# chain 5: SIINFEKL
# B2: H2-Kb / Ed8 (parent complex)
# chain 1: AQSVTQPDARVTVSEGASLQLRCKYSYFGTPYLFWYVQYPRQGLQLLLKYYPGDPVVQGVNGFEAEFSKSNSSFHLRKASVHWSDWAVYFCAVSPGSGGKLTLGAGTRLQVNL
# chain 2: DSGVVQSPRHIIKEKGGRSVLTCIPISGHSNVVWYQQTLGKELKFLIQHYEKVERDKGFLPSRFSVQQFDDYHSEMNMSALELEDSAMYFCASSPRASNYTFGSGTRLLVI
# chain 3: not shown
# chain 4: B1 chain 4
# chain 5: SIINFEKL
# Variants of: B1
# Assay: % of reporter cells activated (NFAT-GFP), raw
# Note: test concentration or dose not given here.
row,Variant,ratio to parent
1,chain 5 I2M,0.617
2,chain 5 L8H,0.805
3,chain 5 F5P,0.0353
4,chain 5 S1R,0.0259
5,chain 5 I2A,1.38
6,chain 5 F5G,0.264
7,chain 5 N4W,0.0415
8,chain 5 F5D,0.129
9,chain 5 N4E,0.0228
10,chain 5 L8T,0.614
11,chain 5 I2N,0.305
12,chain 5 I3A,0.467
13,chain 5 I2V,1.94
14,chain 5 F5C,1.29

# Variants of: B2
# Assay: % of reporter cells activated (NFAT-GFP), raw
row,Variant,ratio to parent
1,chain 5 I2E,1.34
2,chain 5 E6V,0.0189
3,chain 5 N4W,0.00716
4,chain 5 F5L,1.41
5,chain 5 N4A,0.255
6,chain 5 K7I,0.698
7,chain 5 F5T,1.32
8,chain 5 K7F,0.393
9,chain 5 K7P,0.689
10,chain 5 I2C,1.33
11,chain 5 I2D,1.39
12,chain 5 K7L,0.815
13,chain 5 F5P,1.16
14,chain 5 E6R,0.459
15,chain 5 S1T,1.37
16,chain 5 S1G,1.28
17,chain 5 F5V,1.09
18,chain 5 S1M,1.27
19,chain 5 N4T,0.262
20,chain 5 F5C,1.3
21,chain 5 K7H,1.25
22,chain 5 F5D,1.12
23,chain 5 I2K,1.18

row,Variant,ratio to parent
1,chain 5 F5G,1.03
2,chain 5 I2W,1.16
3,chain 5 K7S,0.898
4,chain 5 S1Q,1.24
5,chain 5 K7V,0.73
6,chain 5 N4R,0.442
7,chain 5 N4H,0.155
8,chain 5 I3P,1.25
9,chain 5 I2N,1.26
10,chain 5 K7G,0.616
11,chain 5 F5W,1.12
12,chain 5 N4Q,0.00512
13,chain 5 I3A,1.14
14,chain 5 I2R,1.16
15,chain 5 E6C,0.0436
16,chain 5 L8D,0.903
17,chain 5 S1P,1.13
18,chain 5 E6Y,0.606
19,chain 5 I3R,0.541
20,chain 5 E6W,0.012
21,chain 5 S1V,1.15
22,chain 5 K7E,0.0642
23,chain 5 L8I,1.15

row,Variant,ratio to parent
1,chain 5 I2L,1.37
2,chain 5 N4P,0.00499
3,chain 5 E6A,0.678
4,chain 5 N4S,0.216
5,chain 5 K7M,0.578
6,chain 5 S1W,1.05
7,chain 5 S1L,0.917
8,chain 5 I3H,1.4
9,chain 5 N4E,0.336
10,chain 5 L8F,1.12
11,chain 5 I2Y,1.06
12,chain 5 I2Q,1.06
13,chain 5 E6M,0.453
14,chain 5 N4L,0.84
15,chain 5 I3L,1.3
16,chain 5 S1D,1.12
17,chain 5 I3W,1.03
18,chain 5 I2T,1.43
19,chain 5 I2S,1.37
20,chain 5 L8E,0.853
21,chain 5 L8P,1.21
22,chain 5 F5N,1.1
23,chain 5 K7Y,0.958

row,Variant,ratio to parent
1,chain 5 L8Y,1.16
2,chain 5 I3C,1.27
3,chain 5 L8V,0.877
4,chain 5 I3T,1.34
5,chain 5 K7D,0.0673
6,chain 5 F5K,1.02
7,chain 5 I3N,1.32
8,chain 5 S1K,1.02
9,chain 5 E6Q,0.777
10,chain 5 N4G,0.0339
11,chain 5 K7R,1.16
12,chain 5 S1I,0.983
13,chain 5 S1N,0.821
14,chain 5 S1Y,1.16
15,chain 5 I2F,1.25
16,chain 5 L8A,1.05
17,chain 5 F5M,1.25
18,chain 5 K7C,0.326
19,chain 5 I3F,0.98
20,chain 5 F5Q,1.04
21,chain 5 K7N,0.809
22,chain 5 I2H,1.13
23,chain 5 I2P,1.4

row,Variant,ratio to parent
1,chain 5 S1E,1.28
2,chain 5 L8G,1.2
3,chain 5 L8M,1.13
4,chain 5 L8T,1.1
5,chain 5 L8W,0.95
6,chain 5 F5Y,1.34
7,chain 5 F5S,1.21
8,chain 5 S1H,1.3
9,chain 5 N4I,0.469
10,chain 5 L8S,0.945
11,chain 5 I3Y,0.813
12,chain 5 I3M,1.27
13,chain 5 I3S,1.3
14,chain 5 N4F,0.015
15,chain 5 L8N,1.06
16,chain 5 L8H,1.22
17,chain 5 I3K,1.03
18,chain 5 I3Q,1.02
19,chain 5 I2M,1.2
20,chain 5 E6P,0.27
21,chain 5 I2A,1.41
22,chain 5 K7W,0.826
23,chain 5 F5E,0.932

row,Variant,ratio to parent
1,chain 5 S1A,1.28
2,chain 5 F5I,0.895
3,chain 5 N4V,0.0175
4,chain 5 L8C,1.04
5,chain 5 K7T,0.648
6,chain 5 E6N,0.733
7,chain 5 S1R,0.799
8,chain 5 N4C,0.0721
9,chain 5 E6G,1.04
10,chain 5 S1C,1.03
11,chain 5 N4M,0.00281
12,chain 5 I2V,1.41
13,chain 5 E6I,0.00371
14,chain 5 K7Q,0.662
15,chain 5 L8Q,1.13
16,chain 5 K7A,0.643
17,chain 5 N4K,0.721
18,chain 5 L8K,1.15
19,chain 5 E6L,0.0522
20,chain 5 N4Y,0.00468
21,chain 5 I3D,1.17
